“And” between values parts separate entries of the source, which are not always exact repeats. Equal entries are not always repeated. A value given as a limit tells only on which side of the number the result lay.

Results on 2 molecules are retold here after article PMC3646895, “The Carboxy-Terminal αN Helix of the Archaeal XerA Tyrosine Recombinase Is a Molecular Switch to Control Site-Specific Recombination” (PLoS ONE, 2013).

Data set [1] concerns the target XerA recombinase from Pyrococcus abyssi, C-terminal His-tagged (Pyrococcus abyssi) (UniProt Q9V1P5). As to the kind of experiment: AUC; sedimentation velocity, 25°C, 0.3 mM (11.8 mg.ml^-1) XerA in 20 mM Tris-HCl pH 7.5, 1 M NaCl, 42,000 rpm; c(s) distribution and self-association model with fitted non-ideality; dimer to monomers.
Data set [2] concerns the molecule itself. The data set is described as follows: SDS-PAGE of covalent protein-DNA complexes (assemblies resistant to thermal denaturation); 40 pmol XerA protein with 25 nM 5' end-labeled left half recombination site, 30 mM Tris pH 7.5, 50 mM NaCl, 2 h at 65°C, quenched in Laemmli buffer, 10 min at 100°C, 12% SDS-PAGE, phosphorimaging.

Regarding “XerA recombinase from Pyrococcus abyssi, C-terminal His-tagged (from UniProt Q9V1P5 1-286) (enzyme)”, in data set [1], the Kd (in general, the free concentration of one partner at which half of the binding sites on the other are occupied at equilibrium, for simple one-to-one binding) was above 100 µM; the stoichiometry N (as a rule, a count of units in the complex or per binding partner) was 2 and 4.

B1: XerA-ΔC, XerA deleted for the last 13 amino-acids (αN helix), N-terminal His-tagged (domain or fragment, Pyrococcus abyssi, UniProt Q9V1P5 1-273, looked up)
chain: MEEREERVRDDTIEEFATYLELEGKSRNTVRMYTYYISKFFEEGHSPTARDALRFLAKLKRKGYSTRSLNLVIQALKAYFKFEGLDSEAEKLKTPKMPKTLPKSLTEEEVRRIINAAETLRDRLILLLLYGAGLRVSELCNLRVEDVNFEYGVIVVRGGKGGKDRVVPISESLLSEIKRYLESRNDDSPYLFVEMKRKRKDKLSPKTVWRLVKKYGRKAGVELTPHQLRHSFATHMLERGIDIRIIQELLGHSNLSTTQIYTKVSTKHLKEAV
notes: XerA tyrosine recombinase, Pyrococcus abyssi, deleted for the last 13 amino-acids corresponding to the αN helix alone; In the assay it is covalently linked to the cleaved DNA half site; also called ΔαN helix mutant; source: recombinant, obtained by PCR, expressed and purified following the procedure described for the wild-type enzyme
With B1, the “fold reduction of the high molecular weight complexes against XerA” value in data set [2] stood at 4 fold.
